The text below walks through data of US20240059757A1.

Read-outs that look alike come from different tables or passages of the source.

In general, Kd refers to the constant that tells how readily two partners part at equilibrium. High values mean lower affinity, low ones higher affinity. In general, EC50 refers to the concentration that produces a half-maximal response. The low end stands for greater potency, the high end for weaker potency.

In assay [1] the target is SARS-CoV-2 Spike protein (SARS-CoV-2 Wuhan-Hu-1) (UniProt P0DTC2). Put plainly: cell-based or functional assay.
Assay [2] addresses BGR2008 spike protein RBD (BGR2008). In words: BLI.
Assay [3] addresses WIV1 spike protein RBD (WIV1). In words: BLI. (In general: BLI is a label-free optical method that tracks binding on a fibre tip over time.)
Assay [4] concerns the target BGR2008 spike protein RBD (BGR2008). Put plainly: BLI. The source holds these as a separate data set.
The target in assay [5] is WIV1 spike protein RBD (WIV1). In words: BLI. The source holds these as a separate data set.
Assay [6] concerns the target Anlong112 spike RBD (Anlong112). Put plainly: ELISA. For orientation: ELISA stands for enzyme-linked immunosorbent assay.
The target in assay [7] is BGR2008 spike protein RBD (BGR2008). In words: ELISA.
Assay [8] addresses BtKY72 spike protein RBD (BtKY72). In words: ELISA.
In assay [9] the target is PANG/GD spike protein RBD (PANG/GD). In words: ELISA.
In assay [10] the target is PANG/GX spike protein RBD (PANG/GX). In words: ELISA.
In assay [11] the target is RaTG13 spike protein RBD (RaTG13). In words: ELISA.
In assay [12] the target is SC2018 spike RBD (SC2018). Put plainly: ELISA.
The target of assay [13] is SX2011 spike RBD (SX2011). In words: ELISA.
In assay [14] the target is YN2013 spike RBD (YN2013). Put plainly: ELISA.
The target of assay [15] is PANG/GD spike protein (PANG/GD). Put plainly: cell-based or functional assay.
Assay [16] concerns the target PANG/GX spike protein (PANG/GX). Put plainly: cell-based or functional assay.
Assay [17] has as its target SC2018 spike RBD (SC2018). Put plainly: BLI; *no optimal fitting.
Assay [18] addresses PANG/GX spike protein RBD (PANG/GX).
Assay [19] has as its target PANG/GD spike protein RBD (PANG/GD).
Assay [20] has as its target RaTG13 spike protein RBD (RaTG13).
Assay [21] has as its target SC2018 spike RBD (SC2018).
The target of assay [22] is WIV1 spike protein RBD (WIV1).
Assay [23] has as its target BGR2008 spike protein RBD (BGR2008).
Assay [24] addresses BtKY72 spike protein RBD (BtKY72).
Assay [25] concerns the target ZC45 spike protein RBD (ZC45).

S2X259 (antibody), sequence (VH): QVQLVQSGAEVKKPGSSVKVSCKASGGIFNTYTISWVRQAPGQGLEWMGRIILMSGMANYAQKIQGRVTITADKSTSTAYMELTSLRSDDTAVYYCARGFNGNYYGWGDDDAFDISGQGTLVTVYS
S2X259 (antibody), sequence (VL): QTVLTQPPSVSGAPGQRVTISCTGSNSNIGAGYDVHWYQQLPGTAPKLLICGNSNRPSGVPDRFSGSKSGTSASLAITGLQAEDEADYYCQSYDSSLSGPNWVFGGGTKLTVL
S2X259 Fab, sequence (VH): as the sequence (VH) above
S2X259 Fab, sequence (VL): as the sequence (VL) above

In assay [1], S2E12-LS (antibody) registered a neutralization EC50 (interpolated) of 0.0014 µg/mL, a neutralization EC90 (interpolated) of 0.0119 µg/mL and a neutralization IC50 of 0.0014 µg/mL.
In [1], S2M11-LS (antibody) displayed a neutralization EC50 (interpolated) of 0.0011 µg/mL, a neutralization EC90 (interpolated) of 0.0144 µg/mL and a neutralization IC50 of 0.000914 µg/mL.
For S2X259 (antibody), the Kd in assay [2] worked out at 1.04 nM; in [3], 0.57 nM; in assay [4], 1.24 nM; in assay [5], 0.61 nM; in assay [17] it was 6.93 nM. Further, the EC50 in assay [6] was 0.1 to 1 µg/mL; in assay [7], 0.0308 µg/mL; in assay [8], 0.0376 µg/mL; in assay [9], 0.0362 µg/mL; in [10], 0.0281 µg/mL; in [11], 0.0401 µg/mL. Moreover, the EC50 in [12], in assay [13] and in assay [14] was 0.001 to 0.05 µg/mL each time. Further, the neutralization IC50 in assay [15] is 0.179 µg/mL; in assay [16] it was 1.32 µg/mL.
Consider S2X259 Fab, for which the Kd amounted to 10 nM in assay [18]; 0.2 nM in [19]; 1.1 nM in [20]; 64 nM in assay [21]; 1.4 nM in assay [22]; 3.6 nM in [23]. In addition, the Kd was determined as 0.4 nM in assay [24] and 4000 nM in [25].
